Publication PMC10215423, “The Diagnostic Potential of RNA Aptamers against the NS1 Protein of Dengue Virus Serotype 2”

B1: DENV-6 (structured_RNA)
RNA: GGAGCUCAGCCUUCACUGCCGUAGUCGUAUCUCCAUUACCCAGAAUGGUGAUGCGCCGUGAAGAGCGGUUUAGGGAAUUGGCACCACGGUCGGAUCCAC
B2: DENV-3 (structured_RNA)
RNA: GGAGCUCAGCCUUCACUGCUUUGAUCUCGUGGGGGUGUGUCGCGGGAGACACCAUGGAAUAUAUGGCUGAUUUCAUGUGGGCACCACGGUCGGAUCCAC

Target: NS1 (dengue virus serotype 2) (Dengue virus serotype 2, UniProt P29990 776-1127)
Assay: filter binding
Conditions: protein: commercial; chain copies: 2

Chain of NS1 (dengue virus serotype 2) (P29990 776-1127): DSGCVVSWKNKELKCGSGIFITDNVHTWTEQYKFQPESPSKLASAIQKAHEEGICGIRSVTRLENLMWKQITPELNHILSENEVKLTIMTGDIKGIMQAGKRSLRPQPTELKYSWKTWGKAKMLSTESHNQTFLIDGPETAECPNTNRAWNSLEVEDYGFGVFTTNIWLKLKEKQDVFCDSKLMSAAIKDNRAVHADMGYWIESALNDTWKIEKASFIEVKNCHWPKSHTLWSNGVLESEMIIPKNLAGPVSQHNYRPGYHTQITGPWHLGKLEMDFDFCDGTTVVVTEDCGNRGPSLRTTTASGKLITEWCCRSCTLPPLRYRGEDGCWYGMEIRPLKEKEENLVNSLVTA

Binder | Kd
B1 | 41.4 ± 9.29 nM
B2 | 37.6 ± 10.3 nM
